Legend:
[1] = target: T1, S. mutans ComD protein (histidine kinase) (Streptococcus mutans); assay: cell-based or functional assay
T1 chain: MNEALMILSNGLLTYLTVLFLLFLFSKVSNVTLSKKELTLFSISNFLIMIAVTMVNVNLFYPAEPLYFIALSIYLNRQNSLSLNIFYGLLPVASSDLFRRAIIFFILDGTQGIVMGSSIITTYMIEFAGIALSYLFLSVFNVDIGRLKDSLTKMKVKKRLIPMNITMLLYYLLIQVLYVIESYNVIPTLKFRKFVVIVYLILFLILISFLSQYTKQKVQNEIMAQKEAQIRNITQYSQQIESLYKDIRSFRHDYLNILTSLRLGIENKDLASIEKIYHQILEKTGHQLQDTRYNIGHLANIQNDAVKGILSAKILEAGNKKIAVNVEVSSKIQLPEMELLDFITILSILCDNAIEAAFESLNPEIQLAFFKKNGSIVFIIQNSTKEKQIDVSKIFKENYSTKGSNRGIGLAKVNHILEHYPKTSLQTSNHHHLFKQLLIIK

[2] = target: T1, S. mutans ComD protein (histidine …); assay: cell-based or functional assay

Binder: SGSLSTFFRLFNVSFTQALGK [Peptide analog D2]
- Transformation efficiency (vs no CSP), S. mutans wild-type UA159, 5 µg/ml peptide [1]: 99 fold increase (vs no CSP)

Binder: SGSLTFFRLFNRSFTQALGK [Peptide analog E1]
- Transformation efficiency (vs no CSP), S. mutans wild-type UA159, 5 µg/ml peptide [1]: 791 fold increase (vs no CSP)

Binder: SGSLSTFFRLFNRSFTQALGA [Peptide analog G2]
- Biofilm formation (SDM-glucose), S. mutans UA159, 5 µg/ml peptide [2]: 35.6 % biomass (reduction)
- Transformation efficiency (vs no CSP), S. mutans wild-type UA159, 5 µg/ml peptide [1]: 56 fold increase (vs no CSP)

Binder: SGSLSTFFVLFNRSFTQALGK [Peptide analog B2]
- Transformation efficiency (vs no CSP), S. mutans wild-type UA159, 5 µg/ml peptide [1]: 4 fold increase (vs no CSP)

Binder: SGSLSTFFALFNRSFTQALGK [Peptide analog C2]
- Transformation efficiency (vs no CSP), S. mutans wild-type UA159, 5 µg/ml peptide [1]: 32 fold increase (vs no CSP)

Binder: SGSLSTFFRLFNRSFTALGK [Peptide analog A2]
- Transformation efficiency (vs no CSP), S. mutans wild-type UA159, 5 µg/ml peptide [1]: 125 fold increase (vs no CSP)

Binder: SGSLSTFFRLFNRSFTQAGK [Peptide analog G1]
- Biofilm formation (SDM-glucose), S. mutans UA159, 5 µg/ml peptide [2]: 24.4 % biomass (reduction)
- Transformation efficiency (vs no CSP), S. mutans wild-type UA159, 5 µg/ml peptide [1]: 848 fold increase (vs no CSP)

Binder: SGSLSTFFRLFNASFTQALGK [Peptide analog E2]
- Biofilm formation (SDM-glucose), S. mutans UA159, 5 µg/ml peptide [2]: 38.9 % biomass (reduction)
- Transformation efficiency (vs no CSP), S. mutans wild-type UA159, 5 µg/ml peptide [1]: 252 fold increase (vs no CSP)

Binder: SGSLSTFFRLFNRSFTQLGK [Peptide analog H1]
- Transformation efficiency (vs no CSP), S. mutans wild-type UA159, 5 µg/ml peptide [1]: 18 fold decrease (vs no CSP)

Binder: SGSSTFFRLFNRSFTQALGK [Peptide analog D1]
- Transformation efficiency (vs no CSP), S. mutans wild-type UA159, 5 µg/ml peptide [1]: 275 fold increase (vs no CSP)

Binder: SGTLSTFFRLFNRSFTQA [Peptide analog B3 (JH1005 CSP sequence)]
- Biofilm formation (SDM-glucose), S. mutans UA159, 5 µg/ml peptide [2]: 34.4 % biomass (reduction)
- Transformation efficiency (vs no CSP), S. mutans wild-type UA159, 5 µg/ml peptide [1]: 195 fold increase (vs no CSP)

Binder: SGSLSTFFRLFNRSFTQALGK [S. mutans competence signal peptide (CSP), mature wild-type CSP sequence]
- Transformation efficiency (vs no CSP), S. mutans wild-type UA159, 5 µg/ml peptide [1]: 1550 fold increase (vs no CSP)

Binder: SGSLSTFFRLFNRSFTQALGV [Peptide analog F2]
- Biofilm formation (SDM-glucose), S. mutans UA159, 5 µg/ml peptide [2]: 38.7 % biomass (reduction)
- Transformation efficiency (vs no CSP), S. mutans wild-type UA159, 5 µg/ml peptide [1]: 543 fold increase (vs no CSP)

Binder: SGSLSTFFRLFNRSFTQALK [Peptide analog F1]
- Biofilm formation (SDM-glucose), S. mutans UA159, 5 µg/ml peptide [2]: 36.7 % biomass (reduction)
- Transformation efficiency (vs no CSP), S. mutans wild-type UA159, 5 µg/ml peptide [1]: 541 fold increase (vs no CSP)

— patent publication US20100016234A1, “SIGNAL PEPTIDES, NUCLEIC ACID MOLECULES AND METHODS FOR TREATMENT OF CARIES” (The Governing Council of the University of Toronto, published 2010)
